We go through one molecule from patent US20100330094A1 (NOVIMMUNE S A, published 2010).

Test [1] has as its target T1, native human IP-10 (hIP-10) (human, UniProt P02778 22-98).
T1 sequence (looked up): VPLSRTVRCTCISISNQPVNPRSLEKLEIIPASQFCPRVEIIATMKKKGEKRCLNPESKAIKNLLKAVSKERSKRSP
Kind of test: cell-based or functional assay.

For test [2], the target named is T2, recombinant human IP-10 (hIP-10) (human, UniProt P02778 22-98).
T2 construct: mature; Commercial recombinant chemokine (Peprotech); also called rhIP-10; CXCL10
T2 sequence (looked up): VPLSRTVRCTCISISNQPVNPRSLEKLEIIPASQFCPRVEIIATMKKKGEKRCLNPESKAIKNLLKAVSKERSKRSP
The test can be described thus: SPR (Biacore 2000). Here is the method:
(§1) 200RU (response unit) of a goat anti-human polyclonal IgG (ahIgG; Biacore AB, Uppsala, Sweden) were immobilized by EDC/NHS chemistry on a C1 Biacore chip. […] The surface was regenerated after each cycle by injection of 10 mM glycine pH=1.5 at 30 μL/min, for 30s followed by 1 min. of stabilization time in HBS-EP buffer.
(§2) Binding was measured by passing either hIP-10 (Peprotech, Rocky Hill N.J.) or a NusA-hIP-10 fusion protein at the following concentrations: 34.7 nM, 11.6 nM, 3.85 nM, 1.28 nM, 0.428 nM, 0.142 nM and 0 nM. All solutions were diluted in HBS-EP buffer (Biacore AB, Uppsala, Sweden). Injection was performed at 50 μl/min for 3 min. followed by 12 min. of dissociation time and the temperature was set at 25° C. […] Very similar values were obtained using rhIP-10 or the NusA-hIP-10 fusion, but better response signals were obtained with the fusion protein due to its larger size that induces a better response on the Biacore.

Test [3] addresses T2, recombinant human IP-10 (hIP-10). Kind of test: SPR (Biacore 2000): IgG1 captured on anti-human IgG, IP-10 in solution, 25 C, 1:1 Langmuir fit. Here is the method:
as §1, §2

Test [4] has the same target. Kind of test: cell-based or functional assay.
For test [5], the target named is T3, NusA-hIP-10 fusion protein (human, UniProt P02778 22-98).
T3 construct: mature; not shown: NusA fusion partner encoded by expression plasmid pET43 (Novagen); vector-encoded linker with Factor X protease cleavage site at the C-terminus of NusA; AviTag biotinylation site (Avidity) at the C-terminus of the chemokine
T3 sequence (looked up): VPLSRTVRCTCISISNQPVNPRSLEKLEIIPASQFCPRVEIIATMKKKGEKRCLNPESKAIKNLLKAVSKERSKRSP
The test can be described thus: capture ELISA: NI-0801 coated, concentration range of NusA fusion protein, revealed with anti-NusA antibody. The source says:
(§3) Briefly, IP-10 cloned from cDNA isolated from mouse, rat, rabbit and cynomolgus as well as a panel of human chemokines was expressed and purified as described in Example 1.

The target in test [6] is T4, NusA-cynomolgus IP-10 fusion protein (cynomolgus, UniProt A0A2K5WKN6 22-98).
T4 construct: mature; not shown: NusA fusion partner encoded by expression plasmid pET43 (Novagen); vector-encoded linker with Factor X protease cleavage site
T4 sequence: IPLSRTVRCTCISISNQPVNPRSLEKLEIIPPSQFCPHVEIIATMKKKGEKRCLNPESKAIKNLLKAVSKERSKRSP
The test is described as above.
From the text: as §3

The target in test [7] is T5, NusA-mouse IP-10 fusion protein (mouse, UniProt P17515 22-98).
T5 construct: mature; not shown: NusA fusion partner encoded by expression plasmid pET43 (Novagen); vector-encoded linker with Factor X protease cleavage site
T5 sequence (looked up): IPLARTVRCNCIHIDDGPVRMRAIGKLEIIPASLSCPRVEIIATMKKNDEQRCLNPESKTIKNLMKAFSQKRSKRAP
The description is as above.
From the text: as §3

The target of test [8] is T6, NusA-rat IP-10 fusion protein (rat, UniProt P48973 22-98).
T6 construct: mature; not shown: NusA fusion partner encoded by expression plasmid pET43 (Novagen); vector-encoded linker with Factor X protease cleavage site
T6 sequence (looked up): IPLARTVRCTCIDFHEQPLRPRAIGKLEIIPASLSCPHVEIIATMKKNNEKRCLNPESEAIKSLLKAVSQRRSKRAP
The test is described as above.
From the text: as §3

B1: NI-0801, IgG1 format (antibody, V domains shown)
VH: QVQLVESGGGVVQPGRSLRLSCAASGFTFSNSGIHWVRQAPGKGLEWVAVISYDGSNKYYADSVKGRFTISRDNSKNTLYLQMNSLRAEDTAVYYCARLRDNAEYTDYWGQGTLVTVSS
VL: NFMLTQPHSVSESPGKTVTISCTGSGGSIASNYVQWYQQRPGSSPTTVIYEDNQRPSGVPDRFSGSIDSSSNSASLTISGLKTEDEADYYCQSYDPLPVWVFGGGTKLTVLG
notes: Claims 7 and 21 swap the heavy and light chain numbers
On to B1, for which the “Chemotaxis IC50 (nM); native hIP-10 at 0.6 nM” value in test [1] is 0.58 nM. Also, in test [2], the “fold improvement of affinity over CC21R3P1_F1” value came out at 90 fold. Also, in test [3], the dissociation constant Kd came to 109 pM. The “Calcium flux IC50 (nM); 10 nM rhIP-10” value in test [4] amounted to 6.3 nM. The “Chemotaxis IC50 (nM); 0.2 nM rhIP-10” value in test [4] came to 0.24 nM. Besides, the 50% effective concentration (EC50 (read off the curve)) in test [5] was about 3000 pM; in test [6], about 1000 pM. The binding result in test [7] and in test [8] was “no binding (tested: about 2e-7 M)” throughout.
